Results published in US20260102474A1 (DEUTSCHES KREBSFORSCHUNGSZENTRUM STIFTUNG DES FFENTLICHEN …, published 2026).

Assays:
Experiment in all cases: ELISA on coated his-tagged Fc receptor, anti-human-Fc HRP detection
[1] = biological target: his-tagged FcγRI protein (R&D Systems) (UniProt P12314 16-288)
[2] = biological target: T1, his-tagged FcγRIIb protein (R&D Systems) (UniProt P31994 46-217)
T1 sequence (looked up): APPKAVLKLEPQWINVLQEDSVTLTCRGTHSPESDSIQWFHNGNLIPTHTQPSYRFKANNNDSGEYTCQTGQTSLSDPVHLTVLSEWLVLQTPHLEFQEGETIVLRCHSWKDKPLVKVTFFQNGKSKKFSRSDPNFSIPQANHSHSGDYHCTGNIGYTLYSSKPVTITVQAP

[3] = biological target: his-tagged FcRIIIa protein (R&D Systems) (UniProt P08637 17-208)
[4] = biological target: T2, his-tagged FcγRIIa protein (R&D Systems) (UniProt P12318 36-218)
T2 sequence (looked up): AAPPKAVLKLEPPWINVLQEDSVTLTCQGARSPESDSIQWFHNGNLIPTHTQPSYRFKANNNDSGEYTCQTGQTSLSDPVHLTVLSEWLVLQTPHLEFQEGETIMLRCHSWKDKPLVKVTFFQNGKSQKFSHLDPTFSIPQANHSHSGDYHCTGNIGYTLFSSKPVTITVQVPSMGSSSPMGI

Measured: binding result

Chain of his-tagged FcγRI protein (R&D Systems) (P12314 16-288 limits assumed): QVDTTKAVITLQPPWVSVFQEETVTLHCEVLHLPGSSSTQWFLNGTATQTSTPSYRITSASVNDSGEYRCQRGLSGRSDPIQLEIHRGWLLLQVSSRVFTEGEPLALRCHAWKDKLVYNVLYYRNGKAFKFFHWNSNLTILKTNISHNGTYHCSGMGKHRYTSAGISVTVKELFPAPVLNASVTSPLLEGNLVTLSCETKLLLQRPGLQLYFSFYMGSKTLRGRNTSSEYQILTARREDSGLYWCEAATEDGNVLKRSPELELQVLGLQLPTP
Chain of his-tagged FcRIIIa protein (R&D Systems) (P08637 17-208 limits assumed): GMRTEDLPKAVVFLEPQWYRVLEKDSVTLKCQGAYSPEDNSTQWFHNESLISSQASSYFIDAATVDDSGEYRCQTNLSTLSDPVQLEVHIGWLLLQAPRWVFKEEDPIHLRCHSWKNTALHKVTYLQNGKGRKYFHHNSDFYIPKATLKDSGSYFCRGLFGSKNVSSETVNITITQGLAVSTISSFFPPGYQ

B1: ACE2-M1-FcKO (Fc fusion)
chain: STIEEQAKYFLDKFNHEAEDLFYQSSLASWNYNTNITEENVQNMNNAGDKWSAFLKEQSTYAQMYPLQEIQNLTVKLQLQALQQNGSSVLSEDKSKRLNTILNTMSTIYSTGKVCNPDNPQECLLLEPGLNEIMANSLDYNERLWAWESWRSEVGKQLRPLYEEYVVLKNEMARANHYEDYGDYWRGDYEVNGVDGYDYSRGQLIEDVEHTFEEIKPLYEHLHAYVRAKLMNAYPSYISPIGCLPAHLLGDMWGRFWTNLYSLTVPFGQKPNIDVTDAMVDQAWDAQRIFKEAEKFFVSVGLPNMTQGFWEYSMLTDPGNVQKAVCHPTAWDLGKGDFRILMCTKVTMDDFLTAHREMGRIQYDMAYAAQPFLLRNGANEGFHEAVGEIMSLSAATPKHLKSIGLLSPDFQEDNETEINFLLKQALTIVGTLPFTYMLEKWRWMVFKGEIPKDQWMKKWWEMKREIVGVVEPVPHDETYCDPASLFHVSNDYSFIRYYTRTLYQFQFQEALCQAAKHEGPLHKCDISNSTEAGQKLFNMLRLGKSEPWTLALENVVGAKNMNVRPLLNYFEPLFTWLKDQNKNSFVGWSTDWSPYADQSIKVRISLKSALGDKAYEWNDNEMYLFRSSVAYAMRQYFLKVKNQMILFGEEDVRVANLKPRISFNFFVTAPKNVSDIIPRTEVEKAIRMSRSRINDAFRLNDNSLEFLGIQPTLGPPNQPPVSSGGGGSGGGGSGGGGSEPKSSDKTHTCPPCPAPPVAGPSVFLFPPKPKDTLMISRTPEVTCVVVGVSHEDPEVKFNWYVDGVEVHNAKTKPREEQYNSTYRVVSVLTVLHQDWLNGKEYKCKVSNKQLPSPIEKTISKAKGQPGQPREPQVYTLPPSRDELTKNQVSLTCLVKGFYPSDIAVEWESNGQPENNYKTTPPVLDSDGSFFLYSKLTVDKSRWQQGNVFSCSVMHEALHNHYTQKSLSLSPGK
notes: also called M1 version
no binding: [1] | [2] | [3] | [4]
